Test results taken from patent publication US20220195023A1.

B1: AB-007029 (antibody, V domains shown)
VH: QVQLVESGGGVVQPGRSLRLSCTASGFTFSTYAMHWVRQSPGQGLQWVAVISYHSTNKYYEDSVRGRFTISRDNSKNTLYLQMNSLRAEDTAVYYCARDGYSSSFFDFWGQGTLVTVSS
VL: DIQMTQSPSTLSASVGDRVAITCRASQSISRWLAWYQQQPGKAPKLLMSGASVLESGVPSRFSGSGSGTEFTLTISSLQPDDFATYYCQHYNSYFVTFGQGTKVEIK
B2: AB-007033 (antibody, V domains shown)
VH: QMQLVESGGGVVQPGRSLRLSCAASGFTFSTYAMHWVRQAPGQGLEWVAVISYHSTNKYYADSVRGRFTISRDNSKNTLYLQMNSLRAEDTAVYYCARDGYSSSFFDFWGQGTLVTVSS
VL: DIQMTQSPSTLSASVGDRVTITCRASQSISRWLAWYQQQPGKAPKLLMSGASVLESGVPSRFSGSGSGTEFTLTISSLQPDDFATYYCQHYNSYFVTFGQGTKVEIK
B3: AB-007072 (antibody, V domains shown)
VH: QMQLVESGGGVVQPGRSLRLSCTASGFTFSTYAMHWVRQSPGQGLQWVAVISYHSTNKYYEDSVRGRFTISRDNSKNTLYLQMNSLRAEDTAVYYCARDGYSSSFFDFWGQGTLVTVSS
VL: DIQMTQSPSTLSASVGDRVAITCRASQSISRWLAWYQQQPGKAPKLLMSGASNLESGVPSRFSGSGSGTEFTLTISSLQPDDFATYYCQHYNSYFVTFGQGTKVEIK
B4: AB-007063 (antibody, V domains shown)
VH: QMQLVESGGGVVQPGRSLRLSCTASGFTFSTYAMHWVRQSPGQGLQWVAVISYHSTNKYYEDSVRGRFTISRDNSKNTLYLQMNSLRAEDTAVYYCARDGYSSSFFDFWGQGTLVTVSS
VL: DIQMTQSPSTLSASVGDRVAITCRASQSISRWLAWYQQQPGKAPKLLMAGASVLESGVPSRFSGSGSGTEFTLTISSLQPDDFATYYCQHYNSYFVTFGQGTKVEIK
B5: AB-007028 (antibody, V domains shown)
VH: QMQLVESGGGVVQPGRSLRLSCAASGFTFSTYAMHWVRQAPGQGLQWVAVISYHSTNKYYEDSVRGRFTISRDNSKNTLYLQMNSLRAEDTAVYYCARDGYSSSFFDFWGQGTLVTVSS
VL: DIQMTQSPSTLSASVGDRVTITCRASQSISRWLAWYQQQPGKAPKLLMSGASVLESGVPSRFSGSGSGTEFTLTISSLQPDDFATYYCQHYNSYFVTFGQGTKVEIK
B6: AB-007061 (antibody, V domains shown)
VH: QMQLVESGGGVVQPGRSLRLSCTASGFTFSTYAMHWVRQSPGQGLQWVAVISYHSTNKYYEDSVRGRFTISRDNSKNTLYLQMNSLRAEDTAVYYCARDGYSSSFFDFWGQGTLVTVSS
VL: DIQMTQSPSTLSASVGDRVAITCRASQSIDRWLAWYQQQPGKAPKLLMSGASVLESGVPSRFSGSGSGTEFTLTISSLQPDDFATYYCQHYNSYFVTFGQGTKVEIK
B7: AB-007071 (antibody, V domains shown)
VH: QMQLVESGGGVVQPGRSLRLSCTASGFTFSTYAMHWVRQSPGQGLQWVAVISYHSTNKYYEDSVRGRFTISRDNSKNTLYLQMNSLRAEDTAVYYCARDGYSSSFFDFWGQGTLVTVSS
VL: DIQMTQSPSTLSASVGDRVAITCRASQSISRWLAWYQQQPGKAPKLLMSGASSLESGVPSRFSGSGSGTEFTLTISSLQPDDFATYYCQHYNSYFVTFGQGTKVEIK
B8: AB-007073 (antibody, V domains shown)
VH: QMQLVESGGGVVQPGRSLRLSCTASGFTFSTYAMHWVRQSPGQGLQWVAVISYHSTNKYYEDSVRGRFTISRDNSKNTLYLQMNSLRAEDTAVYYCARDGYSSSFFDFWGQGTLVTVSS
VL: DIQMTQSPSTLSASVGDRVAITCRASQSISRWLAWYQQQPGKAPKLLMSGASVLESGVPSRFSGSGSGTEFTLTISSLQPDDFATYYCQHYNSHFVTFGQGTKVEIK
B9: AB-007030 (antibody, V domains shown)
VH: QMQLVESGGGVVQPGRSLRLSCTASGFTFSTYAMHWVRQSPGQGLEWVAVISYHSTNKYYADSVRGRFTISRDNSKNTLYLQMNSLRAEDTAVYYCARDGYSSSFFDFWGQGTLVTVSS
VL: DIQMTQSPSTLSASVGDRVAITCRASQSISRWLAWYQQQPGKAPKLLMSGASVLESGVPSRFSGSGSGTEFTLTISSLQPDDFATYYCQHYNSYFVTFGQGTKVEIK
B10: AB-007062 (antibody, V domains shown)
VH: QMQLVESGGGVVQPGRSLRLSCTASGFTFSTYAMHWVRQSPGQGLQWVAVISYHSTNKYYEDSVRGRFTISRDNSKNTLYLQMNSLRAEDTAVYYCARDGYSSSFFDFWGQGTLVTVSS
VL: DIQMTQSPSTLSASVGDRVAITCRASQSISSWLAWYQQQPGKAPKLLMSGASVLESGVPSRFSGSGSGTEFTLTISSLQPDDFATYYCQHYNSYFVTFGQGTKVEIK
B11: AB-007070 (antibody, V domains shown)
VH: QMQLVESGGGVVQPGRSLRLSCTASGFTFSTYAMHWVRQSPGQGLQWVAVISYHSTNKYYEDSVRGRFTISRDNSKNTLYLQMNSLRAEDTAVYYCARDGYSSSFFDFWGQGTLVTVSS
VL: DIQMTQSPSTLSASVGDRVAITCRASQSISRWLAWYQQQPGKAPKLLMSAASVLESGVPSRFSGSGSGTEFTLTISSLQPDDFATYYCQHYNSYFVTFGQGTKVEIK
B12: AB-007031 (antibody, V domains shown)
VH: QMQLVESGGGVVQPGRSLRLSCTASGFTFSTYAMHWVRQSPGQGLQWVAVISYHSTNKYYEDSVRGRFTISRDNSKNTLYLQMNSLRAEDTAVYYCARDGYSSSFFDFWGQGTLVTVSS
VL: DIQMTQSPSTLSASVGDRVAITCRASQSISRWLAWYQQQPGKAPKLLISGASVLESGVPSRFSGSGSGTEFTLTISSLQPDDFATYYCQHYNSYFVTFGQGTKVEIK
B13: AB-007032 (antibody, V domains shown)
VH: QVQLVESGGGVVQPGRSLRLSCAASGFTFSTYAMHWVRQAPGQGLQWVAVISYHSTNKYYEDSVRGRFTISRDNSKNTLYLQMNSLRAEDTAVYYCARDGYSSSFFDFWGQGTLVTVSS
VL: DIQMTQSPSTLSASVGDRVTITCRASQSISRWLAWYQQQPGKAPKLLISGASVLESGVPSRFSGSGSGTEFTLTISSLQPDDFATYYCQHYNSYFVTFGQGTKVEIK
B14: AB-007074 (antibody, V domains shown)
VH: QMQLVESGGGVVQPGRSLRLSCAASGFTFSTYAMHWVRQAPGQGLQWVAVISYHSTNKYYEDSVRGRFTISRDNSKNTLYLQMNSLRAEDTAVYYCARDGYSSSFFDFWGQGTLVTVSS
VL: DIQMTQSPSTLSASVGDRVTITCRASQSISRWLAWYQQQPGKAPKLLMSGASVLESGVPSRFSGSGSGTEFTLTISSLQPDDFATYYCQHYNSYYVTFGQGTKVEIK
B15: AB-007034 (antibody, V domains shown)
VH: QVQLVESGGGVVQPGRSLRLSCAASGFTFSTYAMHWVRQAPGQGLEWVAVISYHSTNKYYADSVRGRFTISRDNSKNTLYLQMNSLRAEDTAVYYCARDGYSSSFFDFWGQGTLVTVSS
VL: DIQMTQSPSTLSASVGDRVTITCRASQSISRWLAWYQQQPGKAPKLLISGASVLESGVPSRFSGSGSGTEFTLTISSLQPDDFATYYCQHYNSYFVTFGQGTKVEIK

Legend:
[1] = target: (NVDP)3(NANP)2 (Plasmodium falciparum); assay: SPR, antibody on chip
[2] = target: (NANP)6 (Plasmodium falciparum); assay: SPR, antibody on chip
[3] = target: … (Plasmodium falciparum); assay: SPR, antibody on chip
[4] = target: (NPNA)3 (Plasmodium falciparum); assay: SPR, antibody on chip
[5] = target: (NVDP)3(NANP)2 (Plasmodium falciparum); assay: BLI, target on sensor
[6] = target: (NANP)6 (Plasmodium falciparum); assay: BLI, target on sensor
[7] = target: NANPNVDP (Plasmodium falciparum); assay: BLI, target on sensor
[8] = target: … (Plasmodium falciparum); assay: BLI, target on sensor
[9] = target: (NPNA)3 (Plasmodium falciparum); assay: BLI, target on sensor

Binder	Kd [1] [nM]	Kd [2] [nM]	Kd [3] [nM]	Kd [4] [nM]	Kd [5] [nM]	Kd [6] [nM]	Kd [7] [nM]	Kd [8] [nM]	Kd [9] [nM]
B1	4790	0.177	26200	11.3	6.67	0.803	13.2	5.62	0.166
B2	2680	0.0631	2580	8.02	3.47	0.303	8.08	2.62	0.154
B3	13800	0.0376	38700	73.9	14.5	1.65	16.9	15.5	0.842
B4	3890	0.194	12200	14.1	9.73	1.64	13.1	7.03	0.691
B5	2350	0.166	15900	5.37	4.26	0.501	9.18	2.93	0.0413
B6	4000	0.0657	14600	6.69	5.68	0.385	12.3	4.11	0.00376
B7	4870	0.433	23800	10.2	11	1.66	12.9	10.4	0.694
B8	19500	0.871	16500	72	18.1	0.627	20.3	17.9	0.326
B9	2570	0.0537	6520	6.88	4.03	0.526	7.92	2.84	0.192
B10	6250	0.338	25000	10	13.6	0.607	22.4	14.3	0.00796
B11	11600	0.0786	65300	80.3	14.4	0.834	19.8	15.5	0.68
B12	2590	0.0384	5210	8.02	3.5	0.0569	7.02	2.89	0.003
B13	6540	1.96	4830	13.6	6.68	0.338	13.9	6.42	0.169
B14	3920	0.665	12800	8.94	7.96	0.601	10.2	6.05	0.206
B15	6710	0.932	24100	17	6.14	0.0899	11.5	5.44	0.00372
